Measurements published in publication PMC10823254 (Proceedings of the National Academy of Sciences of the …, 2024).

Molecular target: T1, PilO-C (H. pylori)
T1 chain: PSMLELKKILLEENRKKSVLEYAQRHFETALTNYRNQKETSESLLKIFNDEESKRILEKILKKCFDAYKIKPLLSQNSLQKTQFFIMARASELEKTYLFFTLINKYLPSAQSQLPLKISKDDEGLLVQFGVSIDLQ
Assay: SPR

B1: PilN-C (domain or fragment)
chain: HNAIKSTQDNASSLTIQERLYRHEISRLQVKTDETLKLIKEAKKRLNYNDDIRDVLQGLLNIVPDSITINSIEIDQQSVVVSGKTPSKEAFYFLFQNKLNPMFDYSRAEFFPLSDGWFNFVSTNFSNSLLIKNPESIK
Kd: 3.1 ± 1 µM
